The values that follow come from US11965039B2, “Compstatin analogues and their medical uses” (priority 2018, dated 2024).

Starred links: 1 amine or outer side, 2 acyl side, 3 side chain; linkers in the order of their positions; H or OH if unused. Positions of bridges follow the written chain, without caps; N, C: chain ends. Non-standard residues stand in square brackets, D forms with d. Groups on a side chain read outwards from the residue. No end group written: not given here. *: point of attachment. Trp(1-Me) = Cn1cc(C[C@H](N)C(=O)O)c2ccccc21; C18 diacid = O=C(O)CCCCCCCCCCCCCCCCC(=O)*; γGlu = O=C(O)[C@H](CCC(=O)[*:2])N[*:1]; 1Nal = N[C@@H](Cc1cccc2ccccc12)C(=O)O; 2Nal = N[C@@H](Cc1ccc2ccccc2c1)C(=O)O; Sar = CNCC(=O)O

B1: Compound 67 (peptide)
peptide: Ac-SEFCI[Trp(1-Me)]QDWGEHRCTGAES-NH2
modifications: disulfide 4-14
SMILES: CC[C@H](C)[C@@H]1NC(=O)[C@@H](NC(=O)[C@H](Cc2ccccc2)NC(=O)[C@H](CCC(=O)O)NC(=O)[C@H](CO)NC(C)=O)CSSC[C@@H](C(=O)N[C@H](C(=O)NCC(=O)N[C@@H](C)C(=O)N[C@@H](CCC(=O)O)C(=O)N[C@@H](CO)C(N)=O)[C@@H](C)O)NC(=O)[C@H](CCCNC(=N)N)NC(=O)[C@H](Cc2c[nH]cn2)NC(=O)[C@H](CCC(=O)O)NC(=O)CNC(=O)[C@H](Cc2c[nH]c3ccccc23)NC(=O)[C@H](CC(=O)O)NC(=O)[C@H](CCC(N)=O)NC(=O)[C@H](Cc2cn(C)c3ccccc23)NC1=O
B2: Compound 142 (peptide)
peptide: Ac-SEFCI[Trp(1-Me)]QDWGEHRCTEGE
modifications: disulfide 4-14; not fully specified (C-terminus); printed as Ac-SEFC(1)I[1-Me-Trp]QDWGEHRC(1)TEGE[Peg3]ES-K([17-carboxy-heptadecanoyl][γGlu])-NH2
B3: Compound 49 (peptide)
peptide: Ac-EGSAICI[Trp(1-Me)]QDWGEHRC[Sar]E-NH2
modifications: disulfide 6-16
SMILES: CC[C@H](C)[C@H](NC(=O)[C@H](C)NC(=O)[C@H](CO)NC(=O)CNC(=O)[C@H](CCC(=O)O)NC(C)=O)C(=O)N[C@H]1CSSC[C@@H](C(=O)N(C)CC(=O)N[C@@H](CCC(=O)O)C(N)=O)NC(=O)[C@H](CCCNC(=N)N)NC(=O)[C@H](Cc2c[nH]cn2)NC(=O)[C@H](CCC(=O)O)NC(=O)CNC(=O)[C@H](Cc2c[nH]c3ccccc23)NC(=O)[C@H](CC(=O)O)NC(=O)[C@H](CCC(N)=O)NC(=O)[C@H](Cc2cn(C)c3ccccc23)NC(=O)[C@H]([C@@H](C)CC)NC1=O
B4: Compound 29 (peptide)
peptide: Ac-EGSAICIWQDWGEHRCT-NH2
modifications: disulfide 6-16
SMILES: CC[C@H](C)[C@H](NC(=O)[C@H](C)NC(=O)[C@H](CO)NC(=O)CNC(=O)[C@H](CCC(=O)O)NC(C)=O)C(=O)N[C@H]1CSSC[C@@H](C(=O)N[C@H](C(N)=O)[C@@H](C)O)NC(=O)[C@H](CCCNC(=N)N)NC(=O)[C@H](Cc2c[nH]cn2)NC(=O)[C@H](CCC(=O)O)NC(=O)CNC(=O)[C@H](Cc2c[nH]c3ccccc23)NC(=O)[C@H](CC(=O)O)NC(=O)[C@H](CCC(N)=O)NC(=O)[C@H](Cc2c[nH]c3ccccc23)NC(=O)[C@H]([C@@H](C)CC)NC1=O
B5: Compound 141 (peptide)
peptide: Ac-SEFCI[Trp(1-Me)]QDWGEHRC[Sar]EGESESK([γGlu-C18 diacid])-NH2
modifications: disulfide 4-14
SMILES: CC[C@H](C)[C@@H]1NC(=O)[C@@H](NC(=O)[C@H](Cc2ccccc2)NC(=O)[C@H](CCC(=O)O)NC(=O)[C@H](CO)NC(C)=O)CSSC[C@@H](C(=O)N(C)CC(=O)N[C@@H](CCC(=O)O)C(=O)NCC(=O)N[C@@H](CCC(=O)O)C(=O)N[C@@H](CO)C(=O)N[C@@H](CCC(=O)O)C(=O)N[C@@H](CO)C(=O)N[C@@H](CCCCNC(=O)CC[C@H](NC(=O)CCCCCCCCCCCCCCCCC(=O)O)C(=O)O)C(N)=O)NC(=O)[C@H](CCCNC(=N)N)NC(=O)[C@H](Cc2c[nH]cn2)NC(=O)[C@H](CCC(=O)O)NC(=O)CNC(=O)[C@H](Cc2c[nH]c3ccccc23)NC(=O)[C@H](CC(=O)O)NC(=O)[C@H](CCC(N)=O)NC(=O)[C@H](Cc2cn(C)c3ccccc23)NC1=O
B6: Compound 23 (peptide)
peptide: Ac-FCIWQDWGEHRCT-NH2
modifications: disulfide 2-12
SMILES: CC[C@H](C)[C@@H]1NC(=O)[C@@H](NC(=O)[C@H](Cc2ccccc2)NC(C)=O)CSSC[C@@H](C(=O)N[C@H](C(N)=O)[C@@H](C)O)NC(=O)[C@H](CCCNC(=N)N)NC(=O)[C@H](Cc2c[nH]cn2)NC(=O)[C@H](CCC(=O)O)NC(=O)CNC(=O)[C@H](Cc2c[nH]c3ccccc23)NC(=O)[C@H](CC(=O)O)NC(=O)[C@H](CCC(N)=O)NC(=O)[C@H](Cc2c[nH]c3ccccc23)NC1=O
B7: Compound 73 (peptide)
peptide: H-[dY]FCI[Trp(1-Me)]QDW[Sar]EHRCTGAES-NH2
modifications: disulfide 3-13
SMILES: CC[C@H](C)[C@@H]1NC(=O)[C@@H](NC(=O)[C@H](Cc2ccccc2)NC(=O)[C@H](N)Cc2ccc(O)cc2)CSSC[C@@H](C(=O)N[C@H](C(=O)NCC(=O)N[C@@H](C)C(=O)N[C@@H](CCC(=O)O)C(=O)N[C@@H](CO)C(N)=O)[C@@H](C)O)NC(=O)[C@H](CCCNC(=N)N)NC(=O)[C@H](Cc2c[nH]cn2)NC(=O)[C@H](CCC(=O)O)NC(=O)CN(C)C(=O)[C@H](Cc2c[nH]c3ccccc23)NC(=O)[C@H](CC(=O)O)NC(=O)[C@H](CCC(N)=O)NC(=O)[C@H](Cc2cn(C)c3ccccc23)NC1=O
B8: Compound 50 (peptide)
peptide: Ac-EGSAICI[2Nal]QDWGEHRC[Sar]E-NH2
modifications: disulfide 6-16
SMILES: CC[C@H](C)[C@H](NC(=O)[C@H](C)NC(=O)[C@H](CO)NC(=O)CNC(=O)[C@H](CCC(=O)O)NC(C)=O)C(=O)N[C@H]1CSSC[C@@H](C(=O)N(C)CC(=O)N[C@@H](CCC(=O)O)C(N)=O)NC(=O)[C@H](CCCNC(=N)N)NC(=O)[C@H](Cc2c[nH]cn2)NC(=O)[C@H](CCC(=O)O)NC(=O)CNC(=O)[C@H](Cc2c[nH]c3ccccc23)NC(=O)[C@H](CC(=O)O)NC(=O)[C@H](CCC(N)=O)NC(=O)[C@H](Cc2ccc3ccccc3c2)NC(=O)[C@H]([C@@H](C)CC)NC1=O
B9: Compound 61 (peptide)
peptide: Ac-FCI[Trp(1-Me)]QDWGEHRCTGAES-NH2
modifications: disulfide 2-12
SMILES: CC[C@H](C)[C@@H]1NC(=O)[C@@H](NC(=O)[C@H](Cc2ccccc2)NC(C)=O)CSSC[C@@H](C(=O)N[C@H](C(=O)NCC(=O)N[C@@H](C)C(=O)N[C@@H](CCC(=O)O)C(=O)N[C@@H](CO)C(N)=O)[C@@H](C)O)NC(=O)[C@H](CCCNC(=N)N)NC(=O)[C@H](Cc2c[nH]cn2)NC(=O)[C@H](CCC(=O)O)NC(=O)CNC(=O)[C@H](Cc2c[nH]c3ccccc23)NC(=O)[C@H](CC(=O)O)NC(=O)[C@H](CCC(N)=O)NC(=O)[C@H](Cc2cn(C)c3ccccc23)NC1=O
B10: Compound 43 (peptide)
peptide: Ac-FCIWQDWGEHRCTGAE-NH2
modifications: disulfide 2-12
SMILES: CC[C@H](C)[C@@H]1NC(=O)[C@@H](NC(=O)[C@H](Cc2ccccc2)NC(C)=O)CSSC[C@@H](C(=O)N[C@H](C(=O)NCC(=O)N[C@@H](C)C(=O)N[C@@H](CCC(=O)O)C(N)=O)[C@@H](C)O)NC(=O)[C@H](CCCNC(=N)N)NC(=O)[C@H](Cc2c[nH]cn2)NC(=O)[C@H](CCC(=O)O)NC(=O)CNC(=O)[C@H](Cc2c[nH]c3ccccc23)NC(=O)[C@H](CC(=O)O)NC(=O)[C@H](CCC(N)=O)NC(=O)[C@H](Cc2c[nH]c3ccccc23)NC1=O
B11: Compound 63 (peptide)
peptide: Ac-FCI[1Nal]QDWGEHRCTGAES-NH2
modifications: disulfide 2-12
SMILES: CC[C@H](C)[C@@H]1NC(=O)[C@@H](NC(=O)[C@H](Cc2ccccc2)NC(C)=O)CSSC[C@@H](C(=O)N[C@H](C(=O)NCC(=O)N[C@@H](C)C(=O)N[C@@H](CCC(=O)O)C(=O)N[C@@H](CO)C(N)=O)[C@@H](C)O)NC(=O)[C@H](CCCNC(=N)N)NC(=O)[C@H](Cc2c[nH]cn2)NC(=O)[C@H](CCC(=O)O)NC(=O)CNC(=O)[C@H](Cc2c[nH]c3ccccc23)NC(=O)[C@H](CC(=O)O)NC(=O)[C@H](CCC(N)=O)NC(=O)[C@H](Cc2cccc3ccccc23)NC1=O
B12: Compound 75 (peptide)
peptide: Ac-SEFCI[Trp(1-Me)]QDWGEHRC[Sar]EA-NH2
modifications: disulfide 4-14
SMILES: CC[C@H](C)[C@@H]1NC(=O)[C@@H](NC(=O)[C@H](Cc2ccccc2)NC(=O)[C@H](CCC(=O)O)NC(=O)[C@H](CO)NC(C)=O)CSSC[C@@H](C(=O)N(C)CC(=O)N[C@@H](CCC(=O)O)C(=O)N[C@@H](C)C(N)=O)NC(=O)[C@H](CCCNC(=N)N)NC(=O)[C@H](Cc2c[nH]cn2)NC(=O)[C@H](CCC(=O)O)NC(=O)CNC(=O)[C@H](Cc2c[nH]c3ccccc23)NC(=O)[C@H](CC(=O)O)NC(=O)[C@H](CCC(N)=O)NC(=O)[C@H](Cc2cn(C)c3ccccc23)NC1=O

In general, Kd refers to the constant that tells how readily two partners part at equilibrium.

In one experiment the target is T1, Human C3 (Complement tech cat #A113c) (human, UniProt P01024 23-1663). Briefly: cell-based or functional assay.
T1 sequence (P01024 23-1663 limits assumed): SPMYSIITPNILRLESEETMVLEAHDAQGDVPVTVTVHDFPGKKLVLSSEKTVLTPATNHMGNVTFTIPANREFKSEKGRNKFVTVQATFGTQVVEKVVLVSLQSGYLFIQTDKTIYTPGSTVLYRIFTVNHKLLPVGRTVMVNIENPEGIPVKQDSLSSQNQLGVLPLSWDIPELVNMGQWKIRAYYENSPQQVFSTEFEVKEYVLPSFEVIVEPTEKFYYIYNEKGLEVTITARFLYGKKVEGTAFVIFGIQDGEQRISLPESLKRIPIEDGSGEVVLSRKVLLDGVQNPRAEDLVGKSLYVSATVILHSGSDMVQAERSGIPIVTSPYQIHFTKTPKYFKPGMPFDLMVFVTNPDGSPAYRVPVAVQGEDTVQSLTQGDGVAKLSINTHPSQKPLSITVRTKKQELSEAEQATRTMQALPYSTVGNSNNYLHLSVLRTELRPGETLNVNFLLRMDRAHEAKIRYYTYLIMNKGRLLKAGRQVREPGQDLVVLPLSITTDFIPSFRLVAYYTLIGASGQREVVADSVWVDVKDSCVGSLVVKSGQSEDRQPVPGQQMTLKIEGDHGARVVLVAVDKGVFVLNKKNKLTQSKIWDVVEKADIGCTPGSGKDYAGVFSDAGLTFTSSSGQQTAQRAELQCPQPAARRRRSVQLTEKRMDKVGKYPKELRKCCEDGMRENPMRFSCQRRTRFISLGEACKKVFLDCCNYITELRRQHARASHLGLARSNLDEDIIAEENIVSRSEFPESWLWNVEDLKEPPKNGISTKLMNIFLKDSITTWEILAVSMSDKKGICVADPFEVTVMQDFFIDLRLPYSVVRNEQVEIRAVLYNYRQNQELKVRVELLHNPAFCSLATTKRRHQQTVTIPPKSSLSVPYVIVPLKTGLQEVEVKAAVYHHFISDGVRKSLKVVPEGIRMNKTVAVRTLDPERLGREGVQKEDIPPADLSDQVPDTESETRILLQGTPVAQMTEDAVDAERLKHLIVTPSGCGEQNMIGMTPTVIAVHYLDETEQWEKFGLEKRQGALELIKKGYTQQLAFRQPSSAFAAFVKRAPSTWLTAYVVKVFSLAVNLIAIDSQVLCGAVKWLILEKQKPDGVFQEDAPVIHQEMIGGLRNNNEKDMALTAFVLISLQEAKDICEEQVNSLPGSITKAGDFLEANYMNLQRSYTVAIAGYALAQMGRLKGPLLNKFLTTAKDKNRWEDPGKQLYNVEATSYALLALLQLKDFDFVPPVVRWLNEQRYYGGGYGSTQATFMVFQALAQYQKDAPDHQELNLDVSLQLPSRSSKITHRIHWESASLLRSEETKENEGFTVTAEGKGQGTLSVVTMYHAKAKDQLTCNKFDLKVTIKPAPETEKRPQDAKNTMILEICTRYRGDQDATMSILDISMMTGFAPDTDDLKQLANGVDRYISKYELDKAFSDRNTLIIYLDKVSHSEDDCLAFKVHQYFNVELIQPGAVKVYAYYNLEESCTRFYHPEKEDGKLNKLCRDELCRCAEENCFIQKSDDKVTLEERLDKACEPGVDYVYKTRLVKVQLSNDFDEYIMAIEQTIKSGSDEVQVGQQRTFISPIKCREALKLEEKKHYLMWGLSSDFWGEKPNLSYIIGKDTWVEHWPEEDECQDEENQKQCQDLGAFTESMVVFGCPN
On to B1, for which the “inhibition of hemolysis IC50” value is less than 100 nM.
Regarding B2, the “inhibition of hemolysis IC50” value is less than 100 nM.
Same read-out and setting: for B3 the value was less than 100 nM.
Still for that read-out and setting: for B4 the value was less than 100 nM; for B5, less than 100 nM; for B6, less than 100 nM.
The same measure, in the same setting: next, B7: less than 100 nM.
Take B8: the “inhibition of hemolysis IC50” value was less than 100 nM.
The same measure, in the same setting: for B9 the value was less than 100 nM; for B10, less than 100 nM.
Still for that read-out and setting: next, B11: less than 100 nM; B12: less than 100 nM.

For a further experiment, the target named is T1, Human C3 (Complement tech cat #A113c). Briefly: SPR (Biacore T200), human C3 immobilised, peptide injected, 1:1 fit. The protocol:
Surface plasmon resonance (SPR) was used to characterize peptides with respect to their binding affinity (Kd) for C3. Human C3 (Complement tech cat #A113c) was immobilised on individual flow cells of CM5 sensor chips (GE Healthcare) using standard amine coupling to a density of approximately 3000 resonance units (RU) in a buffer consisting of 10 mM phosphate pH 7.4, 150 mM NaCl, 0.05% Tween20.
For interaction experiments a multi-cycle experiment approach was used and performed using a BiacoreT200™ instrument (GE Healthcare) at 25° C. Peptides were injected in increasing concentration series (6-8 different concentrations) for 60-120 sat a flow rate of 30 µL/min in a buffer consisting of 10 mM Tris buffer at pH 7.4, with 150 mM NaCl and 0.05% Tween20. This was followed by a dissociation period for up to 10 min. The C3 surface was regenerated between runs by a 45 s injection of 3 M MgCl_2.
Regarding B1, the affinity, expressed as Kd, was 0.68 nM.
Same read-out and setting: next, B2: 4.8 nM.
Still for that read-out and setting: for B3 the value was 3.2 nM; for B4, 21 nM.
Same read-out and setting: next, B5: 6.6 nM; B6: 2.8 nM; B7: 0.3 nM.
Consider B8, for which the dissociation constant (Kd) came to 13 nM.
Still for that read-out and setting: for B9 the value was 0.33 nM; for B10, 3.3 nM; for B11, 4.3 nM.
On the same count and under the same terms, for B12 the value was 1.5 nM.
